Results: article PMC6003225 (Molecular Biology of the Cell, 2018)

Molecular target: T1, Danio rerio CPAP G-box domain (DrCPAP_(G-box), amino acids 943–1121) (Danio rerio, UniProt E7FCY1 943-1121)
T1 sequence (looked up): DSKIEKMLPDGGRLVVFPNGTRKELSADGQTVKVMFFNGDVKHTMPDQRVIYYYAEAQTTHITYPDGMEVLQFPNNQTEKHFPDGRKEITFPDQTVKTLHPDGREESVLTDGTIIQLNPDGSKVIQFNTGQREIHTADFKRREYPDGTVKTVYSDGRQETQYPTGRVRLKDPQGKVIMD
Test: ITC

Kd: 34 ± 4 µM
B1: C. elegans SAS-5 fragment corresponding to amino acids 2–122 (SAS-5N) (domain or fragment, UniProt Q20010 2-122, looked up)
chain: NNYDDLPCSIYFKKPTVQEFVDQPRVFEDSEVPAFQEVLQLPQERTKPPVPSTQPIVAAVEVAKKKSCLSAPKPRKEPPSHPALRQKTVAFGKTVNVSQTVEGTSRNSKKVLASTMSAQNT
